Data on three molecules can be found in patent publication US20190099470A1 (UNIVERSITY OF VERMONT AND STATE AGRICULTURAL COLLEGE, published 2019).

The labels stand for the following.
B1: Homo sapiens mitochondrial antiviral signaling protein (MAVS), endogenous wild-type, as oligomers in human PBMC and in plasma of SLE patients (other)
chain: PFAEDKTYKYICRNFSNFCNVDVVEILPYLPCLTARDQDRLRATCTLSGNRDTLWHLFNTLQRRPGWVEYFIAALRGCELVDLADEVASVYQSYQPRTSDRPPDPLEPPSLPAERPGPPTPAAAHSIPYNSCREKEPSYPMPVQETQAPESPGENSEQALQTLSPRAIPRNPDGGPLESSSDLAALSPLTSSGHQEQDTELGSTHTAGATSSLTPSRGPVSPSVSFQPLARSTPRASRLPGPTGSVVSTGTSFSSSSPGLASAGAAEGKQGAESDQAEPIICSSGAEAPANSLPSKVPTTLMPVNTVALKVPANPASVSTVPSKLPTSSKPPGAVPSNALTNPAPSKLPINSTRAGMVPSKVPTSMVLTKVSASTVPTDGSSRNEETPAAPTPAGATGGSSAWLDSSSENRGLGSELSKPGVLASQVDSPFSGCFEDLAISASTSLGMGPCHGPEENEYKSEGTFGIHVAENPSIQLLEGNPGPPADPDGGPRPQADRKFQEREVPCHRPSPGALWLQVAVTGVLVVTLLVVLYRRRLH
notes: Endogenous protein from donors; In some experiments labelled with Alx488 or Alx546; also called MAVS-WT; SLE MAVS oligomers
B2: His-tagged human MAVS-C79F expressed in MAVS-deficient MEFs (other, not shown: small tags and cut ends)
chain: MPFAEDKTYKYICRNFSNFCNVDVVEILPYLPCLTARDQDRLRATCTLSGNRDTLWHLFNTLQRRPGWVEYFIAALRGFELVDLADEVASVYQSYQPRTSDRPPDPLEPPSLPAERPGPPTPAAAHSIPYNSCREKEPSYPMPVQETQAPESPGENSEQALQTLSPRAIPRNPDGGPLESSSDLAALSPLTSSGHQEQDTELGSTHTAGATSSLTPSRGPVSPSVSFQPLARSTPRASRLPGPTGSVVSTGTSFSSSSPGLASAGAAEGKQGAESDQAEPIICSSGAEAPANSLPSKVPTTLMPVNTVALKVPANPASVSTVPSKLPTSSKPPGAVPSNALTNPAPSKLPINSTRAGMVPSKVPTSMVLTKVSASTVPTDGSSRNEETPAAPTPAGATGGSSAWLDSSSENRGLGSELSKPGVLASQVDSPFSGCFEDLAISASTSLGMGPCHGPEENEYKSEGTFGIHVAENPSIQLLEGNPGPPADPDGGPRPQADRKFQEREVPCHRPSPGALWLQVAVTGVLVVTLLVVLYRRRLH
notes: Expressed from vector pIRES in MAVS-KO MEFs; also called C79F variant; MAVS-C79F SNP

Data set [1] concerns the molecule itself. Description: self-oligomerization in human PBMC from healthy donors; semi-denaturing agarose gel and immunoblot. In general terms: In western blotting, separated proteins are transferred to a membrane and probed.
In data set [2] the target is B2. Nature of the data set: plasma oligomers incubated with mitochondria of MAVS-KO MEFs expressing His-tagged human MAVS-C79F; anti-His immunoblot.
The target of data set [3] is T1, His-tagged human MAVS-WT expressed in MAVS-deficient MEFs (human, UniProt Q7Z434 1-540, limits assumed).
T1 construct: also called His-tagged human WT MAVS; not shown: N-terminal His-tag
Nature of the data set: plasma oligomers incubated with mitochondria of MAVS-KO MEFs expressing His-tagged human MAVS-WT; anti-His immunoblot.

Data set [4] deals with the molecule itself. Nature of the data set: self-oligomerization in reconstituted MAVS-KO MEFs; semi-denaturing TGX gel and immunoblot.
Data set [5] has as its target B1. Description: purified plasma oligomers incubated with purified mitochondria of MAVS-WT MEFs, mitochondria re-purified; immunoblot.

For B1, the binding result in data set [1], in data set [2] and in data set [3] was “binds” each time.
B2: the binding result in data set [4] was “binds”.

B3: Mouse MAVS, endogenous, on mitochondria of wild-type MEFs and BMDCs (other, UniProt Q8VCF0 1-503, looked up)
chain: MTFAEDKTYKYIRDNHSKFCCVDVLEILPYLSCLTASDQDRLRASYRQIGNRDTLWGLFNNLQRRPGWVEVFIRALQICELPGLADQVTRVYQSYLPPGTSLRSLEPLQLPDFPAAVSGPSAFAPGHNIPDHGLRETPSCPKPVQDTQPPESPVENSEQLLQTNSGAVARMSGGSLIPSPNQQALSPQPSREHQEQEPELGGAHAANVASVPIATYGPVSPTVSFQPLPRTALRTNLLSGVTVSALSADTSLSSSSTGSAFAKGAGDQAKAATCFSTTLTNSVTTSSVPSPRLVPVKTMSSKLPLSSKSTAAMTSTVLTNTAPSKLPSNSVYAGTVPSRVPASVAKAPANTIPPERNSKQAKETPEGPATKVTTGGNQTGPNSSIRSLHSGPEMSKPGVLVSQLDEPFSACSVDLAISPSSSLVSEPNHGPEENEYSSFRIQVDESPSADLLGSPEPLATQQPQEEEEHCASSMPWAKWLGATSALLAVFLAVMLYRSRRLAQ
notes: Endogenous full protein on the outer mitochondrial membrane of mouse cells; also called MAVS-WT (MEF); endogenous MAVS
Turning to B3, the binding result in data set [5] is on record as “binds”.
